What was measured:
[1] = test system: HLA-A*0201 transgenic mice; assay: In vivo immunogenicity of the peptides; settings: 100 μg per mouse s.c., single immunization, splenocytes two weeks after
From the text: HLA-A*0201 transgenic (Tg[HLA-A2.1]) mice were purchased from Jackson Laboratory (Bar Harbor, Me.). Ishioka, G. Y., et al., Utilization of MHC Class I Transgenic Mice for Development of Minigene DNA Vaccines Encoding Multiple HLA-Restricted CTL Epitopes, J. Immunol. 1999, 162:3915-3925; Alexander, J., et al., A Decaepitope Polypeptide Primes for Multiple CD8+ IFN-Gamma and Th Lymphocyte Responses: Evaluation of Multiepitope Polypeptides as a Mode for Vaccine Delivery, J. Immunol. […] Mice were maintained at the animal facility and studies were approved by the Institutional Animal Care and Use Committees of The University of Texas M. D. Anderson Cancer Center.
For immunization, peptides were diluted in PBS at room temperature, mixed, and emulsified with an equal volume of incomplete Freund's adjuvant (Sigma). […]
To examine whether the peptides were able to immunize HLA-A*0201 transgenic mice, we injected 100 μg per mouse of peptides P20 (SEQ. ID NO. 1) and P66v (SEQ. ID. NO. 4), and Flu-matrix peptide as positive control s.c. to the mice (3 mice per peptide) according to established protocol. […] In vivo immunization successfully generated peptide-specific T cells, detected as specific IFN-γ-expressing (FIG. 2C) and peptide (P20 or P66v)-HLA-A*0201 tetramer^+ CD8^+ T cells (FIG. 2D).

[2] = test system: DKK1 peptide-specific T-cell lines; assay: T-cell proliferation assay (3[H]-thymidine); format: cell-based, human; settings: after 3 to 4 rounds of in vitro stimulation; P<0.01 compared with unpulsed DC
Method: DKK1-specific T cells were generated from PBMCs of HLA-A*0201^+ blood donors and myeloma patients by repeated stimulation of autologous T cells with DKK1 peptide-loaded mature DCs. Briefly, the non-adherent cells of PBMCs (2×10^6/mL; used as T-cell population) were cocultured in 50 mL tissue-culture flasks at 37° C. in 5% CO2 for 7-10 days in Aim-V medium supplemented with 10% pooled human serum (T-cell medium) with mature DCs (2×10^5/mL) preincubated with DKK1 peptides at a final concentration of 50 μg/mL at 37° C. for 2 h. After culture, T cells were collected and restimulated with DKK1 peptide-pulsed autologous mature DCs every week, and the cultures were fed every 5 days with fresh medium containing recombinant IL-2 (20 IU/mL), IL-7 (5 ng/mL) and IL-15 (5 ng/mL; all from R&D System). Induction of DKK1-specific T cells was monitored weekly using T-cell proliferation assay and DKK1 peptide-HLA-A*0201 tetramers (synthesized by MHC Tetramer Laboratory, Baylor College of Medicine, Houston, Tex.). […]
T cells (5×10^4/100 μL/well) were seeded into 96-well U-bottom tissue culture plates (Corning Incorporated, Corning, N.Y.) in T-cell medium. […] T-cell proliferation was measured after overnight incubation with ^3[H]-thymidine ([…]/0.037 MBq/well). Results are expressed as mean count per minute (CPM) of triplicate cultures.

HLA-A*0201 molecules = target: T1, HLA-A*0201 molecules (Homo sapiens, UniProt P04439, D140Y/D185E/D98H/E176V/E277Q/G131W/G231S/I119V/I121R/I166T/I218V/L300P/L318F/N151K/N90K/P208A/P217A/Q86G/Q94H/R138H/R169H/T345S); assay: Peptide-T2 cell binding assay; settings: HLA-A*0201 expression by flow cytometry (FIG. 2A)
T1 construct: endogenous in cells; host or cells: T2 cell line
Method: All peptides were synthesized in the Peptide Synthesis Facility at M. D. Anderson Cancer Center. Purity of synthetic peptides was confirmed to be >98% by reverse-phase high-performance liquid chromatography and mass spectrometry. Synthetic peptides were dissolved in dimethylsulfoxide (DMSO; Sigma, St. Louis, Mo.), and stored at −20° C. until use. Peptides binding to HLA-A*0201 molecules were measured using the T2 cell line according to a protocol previously described. Nijman, H. W., et al., Identification of Peptide Sequences that Potentially Trigger HLA-A2.1-Restricted Cytotoxic T Lymphocytes, Eur J. Immunol. 1993, 23:1215-1219. Briefly, T2 cells were incubated overnight with 3 μg/mL of β2-microglobulin (Sigma) and different concentrations of peptides, followed by wash and incubation with FITC-labeled anti-HLA-A*0201 mAb BB7.2 (BD PharMingen). After washing, cells were analyzed for the levels of HLA-A*0201 expression by flow cytometry. HLA-A*0201 expression was quantified according to the formula [(mean fluorescence with peptide−mean fluorescence without peptide)/mean fluorescence without peptide]×100.

[3] = target: T2, HLA-A*0201 molecules on T2 cells (human); assay: cell-based or functional assay
T2 construct: MHC class I molecule on T2 cells; also called HLA-A2.1

HLA-ABC = assay: cell-based or functional assay
[4] = target: T2, HLA-A*0201 molecules on T2 cells; assay: peptide-T2 cell binding assay, flow cytometry of surface HLA-A*0201 with mAb BB7.2
Method: All peptides were synthesized in the Peptide Synthesis Facility at M. D. Anderson Cancer Center. Purity of synthetic peptides was confirmed to be >98% by reverse-phase high-performance liquid chromatography and mass spectrometry. Synthetic peptides were dissolved in dimethylsulfoxide (DMSO; Sigma, St. Louis, Mo.), and stored at −20° C. until use. […] Nijman, H. W., et al., Identification of Peptide Sequences that Potentially Trigger HLA-A2.1-Restricted Cytotoxic T Lymphocytes, Eur J. Immunol. 1993, 23:1215-1219.

[5] = test system: murine myeloma cell line tumor-A; assay: Vaccination and murine myeloma challenge; format: in vivo, Balb/c mice; settings: vaccinated three times, s.c. challenge with tumor-A 1×10^6 cells/mouse
Method: Balb/c mice (4 per group) were s.c. vaccinated three times with murine DKK1 protein (50 ug/mouse) at a 30-day interval followed by s.c. challenge with murine myeloma cell line tumor-A (1×10^6 cells/mouse) after one weeks of third vaccination. Tumor burdens were measured twice every wk. Mice were euthanized when s.c. tumors reached 225 mm^2 or when mice became moribund. FIG. 18A is a graph depicting ELISA titers of anti-DKK1 antibody in the serum of immunized mice. Results shown in FIG. 18B are survival of mice that received DKK1 protein vaccinations and PBS control. Splenocytes were isolated from survival mice and pooled, and restimulated with irradiated tumor-A for 5 d. […]
Balb/c mice (5 per group) were s.c. vaccinated three times with three DKK1 peptides (100 ug/mouse) at a 14-day interval followed by s.c. challenge with murine myeloma cell line tumor-A (1×10^6 cells/mouse) after one week of third vaccination. Tumor burdens were measured twice every wk. […]
Balb/c mice (5 per group) were i.m. vaccinated three times with murine DKK1 DNA (50 ug/mouse) at a 14-day interval followed by s.c. challenge with murine myeloma cell line tumor-A (1×10^6 cells/mouse) after one weeks of third vaccination. Tumor burdens were measured twice every wk. […]

Question: For “ALGGHPLLGV (listed as Homo Sapiens) [P20]”, which “immunogenicity in immunizing the mice” value [1] is on record?
Answer: as immunogenic as the Flu-matrix peptide

Question: What about the “T-cell line proliferation in response to autologous DCs pulsed with peptide” value [2] of the same molecule?
Answer: proliferated in response to autologous DCs pulsed, but not unpulsed

Question: Which results are given for “ILYPGGNKV (listed as Homo Sapiens) [P66v]”?
Answer: binding affinity (HLA-A*0201 molecules): much higher binding affinity than P66; immunogenicity in immunizing the mice [1]: as immunogenic as the Flu-matrix peptide; T-cell line proliferation in response to autologous DCs pulsed with peptide [2]: proliferated in response to autologous DCs pulsed, but not unpulsed

Question: How did the inhibition of T cell-mediated cytotoxicity against peptide-pulsed T2 cells (51Cr release) [3] turn out when anti-HLA-A*0201 mAb BB7.2 (antibody) was run?
Answer: 70 to 80 % inhibition

Question: Which inhibition of T cell-mediated cytotoxicity against peptide-pulsed T2 cells (51Cr release) (HLA-ABC) does the source give for anti-HLA-ABC mAb W6/32 (antibody) here?
Answer: 70 to 80 % inhibition

B1: DKK1 peptide P20 (peptide)
peptide: ALGGHPLLGV
notes: Synthetic peptide, purity >98%; the end of the range follows from the length of 10 residues
Question: Does B1 bind [4]?
Answer: binds

Question: Does YLGGHPLLGV (Heteroclitic variant of P20) [DKK1 heteroclitic peptide Py20] bind [4]?
Answer: binds

Question: Does ILYPGGNKV (Heteroclitic variant of P66) [DKK1 heteroclitic peptide P66v] bind [4]?
Answer: binds

B2: DKK1 peptide P66 (peptide)
peptide: ILYPGGNKY
notes: Synthetic peptide; the end of the range follows from the length of 9 residues
Question: Does B2 bind [4]?
Answer: binds

B3: DKK1 Protein Vaccine: murine DKK1 protein, 50 ug/mouse s.c. (protein, UniProt O54908 32-272, looked up)
Dickkopf-related protein 1: TLNSVLINSNAIKNLPPPLGGAGGQPGSAVSVAPGVLYEGGNKYQTLDNYQPYPCAEDEECGSDEYCSSPSRGAAGVGGVQICLACRKRRKRCMRHAMCCPGNYCKNGICMPSDHSHFPRGEIEESIIENLGNDHNAAAGDGYPRRTTLTSKIYHTKGQEGSVCLRSSDCAAGLCCARHFWSKICKPVLKEGQVCTKHKRKGSHGLEIFQRCYCGEGLACRIQKDHHQASNSSRLHTCQRH
Question: How did the “protection against murine MM challenge” value [5] turn out when B3 was run?
Answer: can Protect Murine MM Challenge

— patent US20100129390A1, “DKK1 AS A UNIVERSAL TUMOR VACCINE FOR IMMUNOTHERAPY OF CANCERS” (priority 2007, published 2010)
